Holding throughout (test): cell-based or functional assay
Assay [1] addresses human voltage-gated sodium channel Nav1.7 (human) (UniProt Q15858).
The target in assay [2] is TTX-sensitive Nav channels in mouse DRG neurons.
For assay [3], the target named is human Nav1.7 voltage-gated sodium channel (human) (UniProt Q15858).
Assay [4] concerns the target human voltage-gated sodium channel Nav1.3 (human) (UniProt Q9NY46).
Assay [5] concerns the target human voltage-gated sodium channel Nav1.4 (human) (UniProt P35499).
Assay [6] has as its target human voltage-gated sodium channel Nav1.5 (human) (UniProt Q14524).

Sequence of human voltage-gated sodium channel Nav1.7 (human) (Q15858 whole entry): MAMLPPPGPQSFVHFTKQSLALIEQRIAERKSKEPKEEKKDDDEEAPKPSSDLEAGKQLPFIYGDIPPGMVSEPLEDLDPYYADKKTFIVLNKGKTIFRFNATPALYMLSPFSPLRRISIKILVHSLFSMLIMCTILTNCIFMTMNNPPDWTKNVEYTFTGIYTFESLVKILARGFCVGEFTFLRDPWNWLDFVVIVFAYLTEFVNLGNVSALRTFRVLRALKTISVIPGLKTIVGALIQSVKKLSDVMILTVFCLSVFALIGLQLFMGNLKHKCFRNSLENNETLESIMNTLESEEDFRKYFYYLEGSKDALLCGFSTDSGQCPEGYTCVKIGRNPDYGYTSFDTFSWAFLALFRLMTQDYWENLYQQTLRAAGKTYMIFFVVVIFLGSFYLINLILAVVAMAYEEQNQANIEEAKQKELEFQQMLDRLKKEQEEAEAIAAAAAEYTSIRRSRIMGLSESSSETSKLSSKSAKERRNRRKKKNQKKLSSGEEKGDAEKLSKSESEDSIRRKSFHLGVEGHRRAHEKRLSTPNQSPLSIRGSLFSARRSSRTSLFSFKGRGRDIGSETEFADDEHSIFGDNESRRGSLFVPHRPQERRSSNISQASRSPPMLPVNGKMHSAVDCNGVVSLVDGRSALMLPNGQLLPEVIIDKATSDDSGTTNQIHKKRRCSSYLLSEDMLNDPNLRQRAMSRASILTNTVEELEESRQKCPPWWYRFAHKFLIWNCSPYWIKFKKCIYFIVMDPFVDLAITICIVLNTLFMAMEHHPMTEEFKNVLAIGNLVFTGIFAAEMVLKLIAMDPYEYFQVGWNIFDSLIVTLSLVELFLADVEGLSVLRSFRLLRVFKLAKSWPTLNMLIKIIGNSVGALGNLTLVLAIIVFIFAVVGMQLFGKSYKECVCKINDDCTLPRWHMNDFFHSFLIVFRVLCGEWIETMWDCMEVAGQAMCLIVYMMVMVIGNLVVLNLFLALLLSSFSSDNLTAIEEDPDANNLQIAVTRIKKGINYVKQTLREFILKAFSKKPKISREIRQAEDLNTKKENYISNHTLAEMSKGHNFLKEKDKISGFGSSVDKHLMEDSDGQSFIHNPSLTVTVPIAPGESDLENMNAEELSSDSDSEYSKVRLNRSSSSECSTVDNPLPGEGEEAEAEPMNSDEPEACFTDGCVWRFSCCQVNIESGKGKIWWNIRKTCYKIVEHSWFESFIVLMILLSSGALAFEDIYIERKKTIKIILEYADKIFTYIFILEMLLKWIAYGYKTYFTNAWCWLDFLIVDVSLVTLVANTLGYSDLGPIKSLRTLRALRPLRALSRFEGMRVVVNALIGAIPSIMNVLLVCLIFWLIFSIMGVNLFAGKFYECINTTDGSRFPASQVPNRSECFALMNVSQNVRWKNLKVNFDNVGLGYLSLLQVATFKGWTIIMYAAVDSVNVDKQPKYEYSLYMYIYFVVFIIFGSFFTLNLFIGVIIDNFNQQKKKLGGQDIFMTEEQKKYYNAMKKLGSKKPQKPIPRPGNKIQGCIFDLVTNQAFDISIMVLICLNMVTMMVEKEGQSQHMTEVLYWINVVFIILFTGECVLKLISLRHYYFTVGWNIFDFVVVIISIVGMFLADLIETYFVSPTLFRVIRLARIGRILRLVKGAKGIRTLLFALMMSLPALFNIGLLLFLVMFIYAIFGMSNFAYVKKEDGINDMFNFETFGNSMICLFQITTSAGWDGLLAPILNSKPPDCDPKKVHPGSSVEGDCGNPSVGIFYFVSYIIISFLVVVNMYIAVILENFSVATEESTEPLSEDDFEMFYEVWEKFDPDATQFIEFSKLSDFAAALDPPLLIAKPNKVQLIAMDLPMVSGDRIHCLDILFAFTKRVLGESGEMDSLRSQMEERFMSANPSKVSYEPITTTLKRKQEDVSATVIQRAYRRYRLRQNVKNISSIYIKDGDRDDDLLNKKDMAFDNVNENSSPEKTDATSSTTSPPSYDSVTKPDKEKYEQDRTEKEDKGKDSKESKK
Sequence of human voltage-gated sodium channel Nav1.4 (human) (P35499 whole entry): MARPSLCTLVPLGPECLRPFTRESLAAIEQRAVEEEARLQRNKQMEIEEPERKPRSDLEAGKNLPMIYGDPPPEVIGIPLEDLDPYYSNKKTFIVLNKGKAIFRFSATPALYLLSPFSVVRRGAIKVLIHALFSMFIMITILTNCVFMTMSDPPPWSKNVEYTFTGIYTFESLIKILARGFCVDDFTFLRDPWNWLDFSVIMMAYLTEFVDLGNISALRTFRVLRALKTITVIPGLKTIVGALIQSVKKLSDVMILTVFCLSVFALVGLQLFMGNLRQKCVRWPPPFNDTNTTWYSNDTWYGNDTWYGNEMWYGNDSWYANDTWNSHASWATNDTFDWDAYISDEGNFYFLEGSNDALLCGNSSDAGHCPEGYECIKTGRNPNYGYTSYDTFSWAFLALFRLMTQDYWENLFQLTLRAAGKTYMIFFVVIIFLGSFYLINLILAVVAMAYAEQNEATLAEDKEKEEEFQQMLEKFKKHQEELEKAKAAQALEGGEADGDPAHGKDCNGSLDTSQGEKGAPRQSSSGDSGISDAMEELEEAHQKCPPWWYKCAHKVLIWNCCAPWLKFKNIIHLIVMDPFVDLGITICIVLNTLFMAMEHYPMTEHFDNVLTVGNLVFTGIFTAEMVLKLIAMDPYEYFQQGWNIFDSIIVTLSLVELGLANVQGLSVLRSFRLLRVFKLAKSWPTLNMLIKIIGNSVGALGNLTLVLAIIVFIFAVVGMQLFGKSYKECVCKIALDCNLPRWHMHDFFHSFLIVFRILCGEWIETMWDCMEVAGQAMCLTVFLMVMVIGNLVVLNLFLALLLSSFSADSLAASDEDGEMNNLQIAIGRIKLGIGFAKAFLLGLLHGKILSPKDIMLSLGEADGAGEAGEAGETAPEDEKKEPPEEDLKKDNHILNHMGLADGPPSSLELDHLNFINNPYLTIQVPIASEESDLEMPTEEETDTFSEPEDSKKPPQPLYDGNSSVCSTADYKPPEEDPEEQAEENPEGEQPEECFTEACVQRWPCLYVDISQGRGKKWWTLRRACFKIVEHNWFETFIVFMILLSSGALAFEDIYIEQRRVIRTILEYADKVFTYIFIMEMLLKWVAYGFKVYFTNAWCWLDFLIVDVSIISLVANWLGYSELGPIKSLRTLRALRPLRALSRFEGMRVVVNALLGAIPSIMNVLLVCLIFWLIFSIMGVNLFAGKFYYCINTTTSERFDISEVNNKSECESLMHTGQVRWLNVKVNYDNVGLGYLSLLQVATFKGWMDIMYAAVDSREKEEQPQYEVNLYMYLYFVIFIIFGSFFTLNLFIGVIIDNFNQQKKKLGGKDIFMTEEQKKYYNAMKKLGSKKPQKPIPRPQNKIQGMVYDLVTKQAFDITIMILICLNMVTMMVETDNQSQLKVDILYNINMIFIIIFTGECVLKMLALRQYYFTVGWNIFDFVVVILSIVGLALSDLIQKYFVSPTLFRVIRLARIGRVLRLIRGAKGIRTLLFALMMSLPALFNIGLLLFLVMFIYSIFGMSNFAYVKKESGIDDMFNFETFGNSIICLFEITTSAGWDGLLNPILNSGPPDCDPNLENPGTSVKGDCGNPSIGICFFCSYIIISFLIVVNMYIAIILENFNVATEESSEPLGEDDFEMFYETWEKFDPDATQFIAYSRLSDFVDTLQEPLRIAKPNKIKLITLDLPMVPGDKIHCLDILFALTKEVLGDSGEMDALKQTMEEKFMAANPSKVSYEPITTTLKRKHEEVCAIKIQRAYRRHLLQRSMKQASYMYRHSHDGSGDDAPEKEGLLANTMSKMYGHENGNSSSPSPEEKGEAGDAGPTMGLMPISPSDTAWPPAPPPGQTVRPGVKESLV
Sequence of human Nav1.7 voltage-gated sodium channel (human) (Q15858 whole entry): as the sequence (Q15858 whole entry) above

As to “CyA-[Nle6; Val8; Lys17; Glu28]JzTx-V(1-29) (peptide)”, the PX hNav1.7 Tonic IC50 in assay [1] is 26.6 nM.
Take “Pra-[Nle6;5-BrW24;Glu28]JzTx-V(1-29) (peptide)”: the WCPC Mean IC50, partially inactivated is 3.8 nM in assay [2] and 0.13 nM in assay [3].
“Pra-[Nle6;Glu12,28]JzTx-V(1-29) (peptide)”: in assay [2], the WCPC Mean IC50, partially inactivated is 144 nM.
Still for that read-out and setting: in the case of “Pra-[Nle6;Glu14,28]JzTx-V(1-29) (peptide)” it was 99.8 nM.
Consider “[Cit7;Glu20;Tyr28]JzTx-V(1-29) (peptide)”, for which the IC50, IonWorks Quattro electrophysiology is greater than 7 µM in assay [4], greater than 7 µM in assay [5], greater than 7 µM in assay [6] and 5.8 µM in assay [1].
“[Nle6;Pra11;Glu20;Trp29]JzTx-V(1-29) (peptide)”: in assay [1], the IC50, IonWorks Quattro electrophysiology is 0.026 µM.
Consider “[Nva7;Glu20;Tyr28]JzTx-V(1-29) (peptide)”, for which the IC50, IonWorks Quattro electrophysiology in assay [4] is greater than 7 µM; in assay [5], greater than 7 µM; in assay [6] it was greater than 7 µM; in assay [1] it was 4.5 µM.

These data come from patent publication US20160024159A1.
